Source: patent US20040241164A1

Legend:
Soluble Aβ 1-42 = Soluble Aβ 1-42 (UniProt P05067); test: BIAcore 2000 SPR, antibody captured by anti-Ig, soluble Aβ in flow
Soluble Aβ 1-40 = Soluble Aβ 1-40 (UniProt P05067); test: as above

Kd (Soluble Aβ 1-42) | Kd (Soluble Aβ 1-40) | Substance
4.4 nM | – | anti-Aβ murine antibody 21F12
0.004 nM | 0.004 nM | Murine anti-Aβ antibody 266
24 nM | 23 nM | anti-Aβ murine antibody 4G8
